Here are results for five molecules from PMC9927002 (Frontiers in Immunology, 2023).

What all share (settings): one partner purified
Experiment [1] deals with T1, full-length N protein of HKU1 (HCoV-HKU1 isolate N1, NC_006577.2, UniProt Q5MQC6).
T1 construct: also called HKU1 N; source: 293T cells, transfected (pcDNA3.1), in culture supernatant; not shown: D7-tag, C-terminal, kept
Description: ELISA. For orientation: An ELISA detects its analyte on a solid surface through an enzyme-linked reagent.

Experiment [2] addresses T2, full-length N protein of SARS-CoV (SARS-CoV, NC_004718.3 (Tor2), UniProt P59595).
T2 construct: also called SARS-CoV N; source: 293T cells, transfected (pcDNA3.1), in culture supernatant; not shown: D7-tag, C-terminal, kept
Description: ELISA.

The target in experiment [3] is T3, full-length SARS-CoV-2 nucleocapsid (N) protein (SARS-CoV-2, NC_045512.2 (Wuhan-Hu-1), UniProt P0DTC9).
T3 construct: also called SARS-CoV-2 N protein; SARS-CoV-2 N/D7-Tag; not shown: D7-tag, C-terminal, kept
Description: BLI. (In general: In BLI a coated tip is dipped into the sample, and binding shifts an interference pattern.)

Some results are limits rather than exact numbers.

B1: N5 (antibody, V domains shown)
VH: QVQLVQSGAEVKKPGSSVKVSCKASGGTFSSYAIGWVRQAPGQGLEWMGAIIPIFGTTIFAQKFQGRVTITADESTTTAYMELSSLRSDDTAVYYCARGGGGVERGVILTRWFDPWGQGTLVTVSS
VL: QSVLTQPPSVSAAPGQKVTLSCSGSSSNIGNNHVSWYQQLPGTAPKLLIYDNNKRPSGIPDRFSGSKSGTSATLGITGLQTGDEADYYCGTWDNSLSAGVFGGGTKLTVV
notes: also called N5 hmAb
In general, Kd refers to the free concentration of one partner at which half of the binding sites on the other are occupied at equilibrium, for simple one-to-one binding. As usually defined, the koff is the first-order rate constant of dissociation. As usually defined, the kon is the second-order rate constant of association. Low readings indicate slow association, high ones fast association. For B1, the binding result in experiment [1] was “no binding (tested: 10 µg/ml)”. In addition, the binding result in experiment [2] was “binds”. Further, in experiment [3], the Kd is less than 0.001 nM, the koff is less than 1e-07 s⁻¹ and the kon is 137000 M⁻¹ s⁻¹.

B2: N3 (antibody, V domains shown)
VH: QMQLVQSGAEVKRPGSSVKVSCKASGGTFSVYAISWVRQAPGQGLEWMGGIIPIFGTANYAQKFQGRVTLTADESTSTAYMELSSLSSEDTAVYYCARGGYCSGANCPKWGEWSHSYNYMDVWGKGTTVTVSS
VL: not shown
notes: also called N3 hmAb
Regarding B2, in experiment [1], the binding result is “no binding (tested: 10 µg/ml)”. Besides, in experiment [2], the binding result is recorded as “binds”. Moreover, in experiment [3], the Kd is less than 0.001 nM, the koff was less than 1e-07 s⁻¹ and the kon was determined as 157000 M⁻¹ s⁻¹.

B3: N31 (antibody, V domains shown)
VH: QMQLVQSGAEVKKPGSSVKVSCKASGGTFSSYGISWVRQAPGQGLEWMGGIIPILGTANYAQRFQGRIALTADESTSTAYMEVSSLRSEDTAVYYCARGMWSNPPGYCCSYMDVWGKGTTVTVSS
VL: EIVLTQSPATLSVSPGERVTLACRASQSLRSKLAWYQQKPGQAPRLLIYDASTRATGFPARFSGSGSGTEFTLTISSLQSEDFAVYYCQQYSNWPRTFGQGTKLEIK
notes: also called N31 hmAb
Regarding B3, in experiment [1], the binding result was “no binding (tested: 10 µg/ml)”. Besides, the binding result in experiment [2] is on record as “binds”. In experiment [3], this molecule registered a Kd of less than 0.001 nM, a koff of less than 1e-07 s⁻¹ and a kon of 174000 M⁻¹ s⁻¹.

B4: 3B7 (antibody, V domains shown)
VH: QMQLVQSGAEVKKPGASVRVSCKVSGYSLTELPMHWVRQAPGKGLEWVGSFDPQDAETTYAQRFQGRVAMTEDTSTDTAYMELSSLRSEDTAVYYCATPAPTIVGVVIYALHIWGQGTMVTVSS
VL: EIVLTQSPGTLSLSPGERATLSCRASQRVSDNSLAWYQQKPGQAPSLLIFAASIRAPGIPDRISGTGSGTDFTLTINRLEPEDFVVYFCLQYTTSPPLTFGGGTKLEIK
notes: also called 3B7 hmAb
For the molecule B4, the binding result in experiment [1] was “no binding (tested: 10 µg/ml)”. Also, in experiment [2], the binding result was “binds”. In experiment [3], the Kd worked out at 1.94 nM, the koff worked out at 0.000689 s⁻¹ and the kon turned out to be 355000 M⁻¹ s⁻¹.

B5: N83 (antibody, V domains shown)
VH: QVQLQESGPRLVKSSETLSLTCTVSGGSISSGSYYWNWIRQPAGKGLEWIGRVYISGVTSYNPSLKSRVTISLDISKNQFSLQLTSVTAADSAVYYCARGGMAVGAPLYYYFYGMDVWGQGTTVTVSS
VL: DVVMTQSPLSLPVTPGEPASISCRSSQSLLHSNGYNYVDWYLQKPGQSPQLMIYLGSNRASGVPDRFSGSGSGTHFTLKISRVEAEDVGVYYCMQALQTLSITFGQGTRLEIK
notes: also called N83 hmAb
Turning to B5, in experiment [1], the binding result is given as “no binding (tested: 10 µg/ml)”. Besides, in experiment [2], the binding result is “binds”. In experiment [3], this molecule returned a Kd of 1.76 nM, an off-rate constant (koff) of 0.00113 s⁻¹ and a kon of 639000 M⁻¹ s⁻¹.
